# B1: urelumab (fully human IgG4 mAb) (antibody, V domains shown)
# VH: QVQLQQWGAGLLKPSETLSLTCAVYGGSFSGYYWSWIRQSPEKGLEWIGEINHGGYVTYNPSLESRVTISVDTSKNQFSLKLSSVTAADTAVYYCARDYGPGNYDWYFDLWGRGTLVTVSS
# VL: EIVLTQSPATLSLSPGERATLSCRASQSVSSYLAWYQQKPGQAPRLLIYDASNRATGIPARFSGSGSGTDFTLTISSLEPEDFAVYYCQQRSNWPPALTFGGGTKVEIK
# B2: urelumab Fab (Fab, V domains shown)
# VH: B1 VH
# VL: B1 VL
# notes: urelumab heavy chain Fab region; urelumab kappa light chain (captured on an anti-human kappa surface); also called BMS-663513 (Fab); URE-Fab
# How the values were obtained:
# [1] = target: T1, human 4-1BB residues 24–186, wild type, His–Avi (human, UniProt Q07011); assay: cell-based or functional assay
# [2] = target: T2, human 4-1BB residues 24–186 I132R, His–Avi (Homo sapiens, UniProt Q07011, I132R); assay: SPR; binding kinetics and affinities, monovalent binding of utomilumab and urelumab to wild type and mutant h4-1BB (Supplementary Figure 8); who was immobilised is not given in the source; conditions: both partners purified
# T2 construct: human 4-1BB (CD137, TNFRSF9), residues 24-186, I132R; source: HEK cells, transfected, secreted, purified (NiExcel, Superdex 200); not shown: His8, C-terminal, kept
# [3] = target: T1, human 4-1BB residues 24–186, wild type, …; assay: as above; conditions: both partners purified
# [4] = target: T3, human 4-1BB residues 24–186 M101R, His–Avi (Homo sapiens, UniProt Q07011, M101R); assay: as above; conditions: both partners purified
# T3 construct: human 4-1BB (CD137, TNFRSF9), residues 24-186, M101R; source: HEK cells, transfected, secreted, purified (NiExcel, Superdex 200); not shown: His8, C-terminal, kept
# T3 sequence (Q07011 24-186 M101R): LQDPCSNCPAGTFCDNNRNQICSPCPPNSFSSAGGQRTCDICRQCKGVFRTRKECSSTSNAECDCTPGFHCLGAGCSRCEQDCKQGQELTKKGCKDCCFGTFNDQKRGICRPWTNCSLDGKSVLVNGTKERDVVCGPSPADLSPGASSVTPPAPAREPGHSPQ
# T1 sequence (Q07011 24-186): as the sequence (Q07011 24-186 M101R) above, with R78M counted along it
# T2 sequence (Q07011 24-186 I132R): as the sequence (Q07011 24-186 M101R) above, with R78M, I109R counted along it
Binder,"NF-ĸB luciferase reporter in h4-1BB-expressing HEK293 cells, fold induction over unstimulated cells, cross-linked by Pfeiffer cells (FcγRIIB), max 250 nM [1]","NF-ĸB luciferase reporter in h4-1BB-expressing HEK293 cells, fold induction over unstimulated cells, no cross-linking, max 250 nM [1]",Kd [2],Kd [3],Kd [4]
B1,2.24 fold,1.99 fold,,,
B2,,,18 nM,22 nM,16 nM
